The source of these data is patent US20200297760A1, “COMPOSITIONS AND METHODS FOR REDUCING IMMUNE RESPONSES AGAINST CHIMERIC ANTIGEN RECEPTORS” (Juno Therapeutics, Inc., priority 2015, published 2020).

The target of the first test is HLA-A*11:01 (recombinant MHC class I molecule) (human). Put plainly: REVEAL MHC-peptide binding assay, recombinant HLA-A*11:01. To be noted: remark: other sources report otherwise.
As for IIFWVKRGN [Synthetic peptide …, listing 1 of 2 here], the In Vitro Score (score, % of positive control peptide) is 42.1.

IFWVSRGRK: the In Vitro Score (score, % of positive control peptide) came to 39.2.

On to IFWVKRGAK [Synthetic peptide …, listing 1 of 2 here], for which the In Vitro Score (score, % of positive control peptide) is 69.7.

Regarding IIFWVQRGA, the In Vitro Score (score, % of positive control peptide) was found to be 56.5.

As to AFIIFWVSR, the In Vitro Score (score, % of positive control peptide) was 54.

On to IIFWVQRGR, for which the In Vitro Score (score, % of positive control peptide) stood at 72.8.

With IFWVQRGAK, the In Vitro Score (score, % of positive control peptide) stood at 61.3.

Turning to WVARGRKKL [Synthetic peptide …, listing 1 of 2 here], the In Vitro Score (score, % of positive control peptide) came out at 13.8.

With IFWVKRGLK, the In Vitro Score (score, % of positive control peptide) was found to be 61.1.

For IFWVQRGNK, the In Vitro Score (score, % of positive control peptide) was 67.5.

IIFWVSRGR: the In Vitro Score (score, % of positive control peptide) was 68.9.

In the case of AFIIFWVAR, the In Vitro Score (score, % of positive control peptide) was 51.8.

WVQRGRKKL [Synthetic peptide …, listing 1 of 2 here]: the In Vitro Score (score, % of positive control peptide) worked out at 12.8.

For IIFWVKRGA [Synthetic peptide …, listing 1 of 2 here], the In Vitro Score (score, % of positive control peptide) turned out to be 22.6.

As for IFWVHRGRK, the In Vitro Score (score, % of positive control peptide) stood at 36.6.

Take WVKRGHKKL [Synthetic peptide …, listing 1 of 2 here]: the In Vitro Score (score, % of positive control peptide) is 2.8.

Turning to VAFIIFWVK [Synthetic peptide …, listing 1 of 2 here], the In Vitro Score (score, % of positive control peptide) was found to be 109.

Regarding WVQRGNKKL, the In Vitro Score (score, % of positive control peptide) worked out at 10.7.

For the molecule IIFWVKRGR, the In Vitro Score (score, % of positive control peptide) was determined as 54.5.

In the case of IFWVKRGSK, the In Vitro Score (score, % of positive control peptide) came to 47.9.

In the case of VAFIIFWVS, the In Vitro Score (score, % of positive control peptide) amounted to 25.1.

For IFWVKRGNK [Synthetic peptide …, listing 1 of 2 here], the In Vitro Score (score, % of positive control peptide) was determined as 45.9.

As to WVKRGNKKL, the In Vitro Score (score, % of positive control peptide) was found to be 4.1.

Consider WVKRGSKKL, for which the In Vitro Score (score, % of positive control peptide) was determined as 11.8.

For AFIIFWVHR, the In Vitro Score (score, % of positive control peptide) was 34.9.

In the case of IIFWVHRGR, the In Vitro Score (score, % of positive control peptide) worked out at 77.5.

Regarding IFWVARGRK, the In Vitro Score (score, % of positive control peptide) was determined as 34.9.

As for WVKRGAKKL [Synthetic peptide …, listing 1 of 2 here], the In Vitro Score (score, % of positive control peptide) was 4.6.

As to IIFWVARGR [Synthetic peptide …, listing 1 of 2 here], the In Vitro Score (score, % of positive control peptide) is 70.6.

As to FIIFWVHRG, the In Vitro Score (score, % of positive control peptide) turned out to be 0.9.

Consider IIFWVKRGL, for which the In Vitro Score (score, % of positive control peptide) amounted to 32.4.

For the molecule IFWVQRGRK, the In Vitro Score (score, % of positive control peptide) worked out at 128.

Take IFWVKRGHK [Synthetic peptide …, listing 1 of 2 here]: the In Vitro Score (score, % of positive control peptide) came to 30.9.

Consider IIFWVLRGR [Synthetic peptide …, listing 1 of 2 here], for which the In Vitro Score (score, % of positive control peptide) is 35.2.

In a further test the target is HLA-B*08:01 (recombinant MHC class I molecule) (human). Put plainly: REVEAL MHC-peptide binding assay, recombinant HLA-B*08:01. To be noted: remark: other sources report otherwise.
Consider IIFWVKRGN [Synthetic peptide …, listing 1 of 2 here], for which the In Vitro Score (score, % of positive control peptide) was 0.9.

Turning to IFWVSRGRK, the In Vitro Score (score, % of positive control peptide) was 0.

As for IFWVKRGAK [Synthetic peptide …, listing 1 of 2 here], the In Vitro Score (score, % of positive control peptide) amounted to 2.2.

For the molecule IIFWVQRGA, the In Vitro Score (score, % of positive control peptide) was determined as 0.2.

In the case of AFIIFWVSR, the In Vitro Score (score, % of positive control peptide) is 0.3.

Regarding IIFWVQRGR, the In Vitro Score (score, % of positive control peptide) was found to be 0.1.

For IFWVQRGAK, the In Vitro Score (score, % of positive control peptide) came out at 0.2.

Regarding WVARGRKKL [Synthetic peptide …, listing 1 of 2 here], the In Vitro Score (score, % of positive control peptide) was 32.4.

On to IFWVKRGLK, for which the In Vitro Score (score, % of positive control peptide) came out at 58.3.

In the case of IFWVQRGNK, the In Vitro Score (score, % of positive control peptide) is 0.1.

Consider IIFWVSRGR, for which the In Vitro Score (score, % of positive control peptide) turned out to be 0.

As to AFIIFWVAR, the In Vitro Score (score, % of positive control peptide) stood at 0.2.

WVQRGRKKL [Synthetic peptide …, listing 1 of 2 here]: the In Vitro Score (score, % of positive control peptide) came out at 45.1.

Take IIFWVKRGA [Synthetic peptide …, listing 1 of 2 here]: the In Vitro Score (score, % of positive control peptide) came out at 0.9.

Turning to IFWVHRGRK, the In Vitro Score (score, % of positive control peptide) was 0.1.

As for WVKRGHKKL [Synthetic peptide …, listing 1 of 2 here], the In Vitro Score (score, % of positive control peptide) stood at 47.6.

For VAFIIFWVK [Synthetic peptide …, listing 1 of 2 here], the In Vitro Score (score, % of positive control peptide) was found to be 0.3.

Consider WVQRGNKKL, for which the In Vitro Score (score, % of positive control peptide) turned out to be 32.

On to IIFWVKRGR, for which the In Vitro Score (score, % of positive control peptide) is 0.

Take IFWVKRGSK: the In Vitro Score (score, % of positive control peptide) was determined as 1.2.

Consider VAFIIFWVS, for which the In Vitro Score (score, % of positive control peptide) amounted to 0.1.

Take IFWVKRGNK [Synthetic peptide …, listing 1 of 2 here]: the In Vitro Score (score, % of positive control peptide) was 0.1.

For WVKRGNKKL, the In Vitro Score (score, % of positive control peptide) amounted to 65.9.

Turning to WVKRGSKKL, the In Vitro Score (score, % of positive control peptide) came to 56.1.

Take AFIIFWVHR: the In Vitro Score (score, % of positive control peptide) worked out at 0.3.

For IIFWVHRGR, the In Vitro Score (score, % of positive control peptide) was 0.2.

Take IFWVARGRK: the In Vitro Score (score, % of positive control peptide) came out at 0.

As for IIFWVKRGS, the In Vitro Score (score, % of positive control peptide) turned out to be 0.4.

Regarding WVKRGAKKL [Synthetic peptide …, listing 1 of 2 here], the In Vitro Score (score, % of positive control peptide) was determined as 34.1.

For the molecule IIFWVARGR [Synthetic peptide …, listing 1 of 2 here], the In Vitro Score (score, % of positive control peptide) turned out to be 0.3.

For FIIFWVHRG, the In Vitro Score (score, % of positive control peptide) stood at 0.2.

For the molecule IIFWVKRGL, the In Vitro Score (score, % of positive control peptide) was 1.7.

Consider IFWVQRGRK, for which the In Vitro Score (score, % of positive control peptide) is 0.

On to IFWVKRGHK [Synthetic peptide …, listing 1 of 2 here], for which the In Vitro Score (score, % of positive control peptide) was 3.2.

As to IIFWVLRGR [Synthetic peptide …, listing 1 of 2 here], the In Vitro Score (score, % of positive control peptide) was 0.4.

In another test the target is HLA-A*02:01 (human). Put plainly: REVEAL MHC-peptide binding assay, recombinant HLA. To be noted: remark: other sources report otherwise.
IFWVKRGNK […, listing 2 of 2 here]: the In Vitro Score (% of positive control peptide) came to 3.5.

VAFIIFWVK […, listing 2 of 2 here]: the In Vitro Score (% of positive control peptide) worked out at 0.7.

With IIFWVKRGA […, listing 2 of 2 here], the In Vitro Score (% of positive control peptide) is 85.9.

With WVKRGHKKL […, listing 2 of 2 here], the In Vitro Score (% of positive control peptide) was 3.9.

As to IFWVKRGAK […, listing 2 of 2 here], the In Vitro Score (% of positive control peptide) is 13.8.

As for IFWVKRGHK […, listing 2 of 2 here], the In Vitro Score (% of positive control peptide) was 2.2.

Turning to WVKRGAKKL […, listing 2 of 2 here], the In Vitro Score (% of positive control peptide) turned out to be 4.7.

The next test has as its target HLA-A*03:01 (human). Put plainly: REVEAL MHC-peptide binding assay, recombinant HLA. To be noted: remark: other sources report otherwise.
Take VAFIIFWVK […, listing 2 of 2 here]: the In Vitro Score (% of positive control peptide) was 1.5.

With WVARGRKKL […, listing 2 of 2 here], the In Vitro Score (% of positive control peptide) stood at 1.3.

IIFWVKRGA […, listing 2 of 2 here]: the In Vitro Score (% of positive control peptide) worked out at 42.9.

Consider WVKRGHKKL […, listing 2 of 2 here], for which the In Vitro Score (% of positive control peptide) came to 1.4.

For the molecule IIFWVARGR […, listing 2 of 2 here], the In Vitro Score (% of positive control peptide) stood at 18.6.

For IFWVKRGAK […, listing 2 of 2 here], the In Vitro Score (% of positive control peptide) worked out at 22.

Regarding WVQRGRKKL […, listing 2 of 2 here], the In Vitro Score (% of positive control peptide) was determined as 4.9.

IIFWVKRGN […, listing 2 of 2 here]: the In Vitro Score (% of positive control peptide) turned out to be 4.3.

On to WVKRGAKKL […, listing 2 of 2 here], for which the In Vitro Score (% of positive control peptide) amounted to 4.1.

Take IIFWVLRGR […, listing 2 of 2 here]: the In Vitro Score (% of positive control peptide) stood at 2.8.
